B1: OR4K15 (parent)
chain: GUUAACGGUCAUAGGCCAUGGAAACUAGGAGCACCAUUUCGCUGCCAGUGAAGAAAUGAACAAAGAAAAUCUGGGCCAGGCAGGCAUCAAAAGAAAUAGUCUUGCGCUCAACCAGAAAGUCUGUAAUCAUUUUAAGGGUA

Variants of: B1
Test: self-cleavage, relative activity (ratio to wild type); higher = more cleavage; in vitro, sequencing; the parent is a self-cleaving ribozyme

| Variant | self-cleavage |
| --- | --- |
| A62U A125G | 0.71 |
| A59G A68G | 1.22 |
| G58A | 1.13 |
| G58U | 1.43 |
| A62G U127C | 0.38 |
| A62G U133A | 1.51 |
| A62G U133C | 1.14 |
| A62G G84A | 1.73 |
| A62G G84C | 0.49 |
| U57G U130C | 0.44 |
| A62G A78C | 0.37 |
| A62G A78U | 0.19 |
| A60C A95G | 1.47 |
| A60U C128U | 0.44 |
| A60G G79U | 0.08 |
| A59U U70C | 0.53 |
| A59U A64G | 1.4 |
| A60U C113U | 0.27 |
| A60G U132C | 1.07 |
| A59G A129G | 1.16 |
| A60U A110G | 0.24 |
| A59G U131C | 0.71 |
| A59G U131A | 1.54 |
| A62G A98G | 0.4 |

| Variant | self-cleavage |
| --- | --- |
| A62G A98U | 1.39 |
| A62G U130G | 1.06 |
| A62G U130C | 1.15 |
| A59G A60G | 0.59 |
| A59G A60U | 2.03 |
| A60G G99U | 0.38 |
| A59U A135G | 1.33 |
| G58U U124C | 0.25 |
| A60G C109A | 0.21 |
| A60G U87A | 1.02 |
| A60G | 1.14 |
| A60C | 1.7 |
| A60U | 1.29 |
| A62G A110C | 0.34 |
| A62U A140G | 0.67 |
| A62C A118G | 1.46 |
| C61U A126G | 0.55 |
| A60G U100A | 0.52 |
| A59U A96G | 1.87 |
| A59U A96C | 0.81 |
| A60G A69U | 1.67 |
| A62G G73A | 0.15 |
| A59U C61U | 1.53 |
| A59G U133A | 1.28 |

| Variant | self-cleavage |
| --- | --- |
| A59G U133C | 1.79 |
| A60G A110C | 0.4 |
| A62U A90G | 1.26 |
| A60G A135U | 1.41 |
| A59G A94G | 0.79 |
| A62G A117C | 0.69 |
| A62G A95U | 2 |
| A62U C85U | 1.31 |
| A59G A114G | 0.26 |
| A62G A67G | 0.96 |
| A62G A67C | 1.96 |
| A62G A67U | 1.82 |
| C61U A98U | 2.63 |
| A62G C112U | 0.01 |
| A62G U72C | 0.24 |
| A62G A96U | 1.26 |
| A59U U108A | 0.02 |
| A60C A96G | 1.77 |
| A62U A63U | 1.75 |
| A59G A126G | 0.81 |
| A60G C107U | 0 |
| A59U A91U | 1.44 |
| A60G U102C | 1.4 |
| A60U A86U | 1.67 |

| Variant | self-cleavage |
| --- | --- |
| A59G A135U | 1.55 |
| A62U A94G | 1.69 |
| A60U U133C | 2.17 |
| A59C U127A | 1.3 |
| A59G G93A | 1.61 |
| A59U A126G | 1.26 |
| G58A A95G | 1.51 |
| A59U U120C | 1.78 |
| A59G G73A | 0.17 |
| A59G U120A | 1.23 |
| A59G C85U | 0.51 |
| A60G A90U | 1.84 |
| A60G A90G | 0.4 |
| A62G C88G | 1.14 |
| A60U A66G | 1.63 |
| A62U A82G | 0.67 |
| A62C U122C | 1.33 |
| A60G A82C | 0.08 |
| A60G A82U | 0.12 |
| A60G A82G | 0.21 |
| A62G C101U | 0.41 |
| A60G C128U | 1.12 |
| A62C A66G | 1.51 |
| A60G A125U | 2.64 |

| Variant | self-cleavage |
| --- | --- |
| A59G G80U | 0.26 |
| G58U A126G | 0.8 |
| A62G A94U | 2.08 |
| C61U G138A | 1.4 |
| A59U A111U | 0.13 |
| A59U A111G | 0.02 |
| C61U A110G | 0.11 |
| A60G C76U | 0.13 |
| A60G C121U | 1.48 |
| A62G A135U | 1.67 |
| A59G U124C | 0.78 |
| A60G A140U | 1.06 |
| A59C A140U | 1.46 |
| A59U A117U | 0.89 |
| A59U A117G | 1.72 |
| A59G A67G | 1.28 |
| A60C A68G | 1.17 |
| G58U U102C | 1.68 |
| A60G U70G | 1.65 |
| A60G U70C | 0.8 |
| G58A U102C | 2.39 |
| A62G C76G | 0.06 |
| A59U U131A | 0.84 |
| A60G A89U | 1.5 |

| Variant | self-cleavage |
| --- | --- |
| A60G A89C | 1.36 |
| A60G A89G | 1.55 |
| A60C C71U | 0.04 |
| A59U A62C | 1.11 |
| A59U A62U | 1.44 |
| C61U A62G | 1.65 |
| G58A A60G | 1.51 |
| A60U A78G | 0.23 |
| A59C A68G | 2.1 |
| A59G U122C | 1.1 |
| A59G A63G | 1.4 |
| A60U U124C | 0.94 |
| A62C U108A | 0.02 |
| A59U A140G | 2.05 |
| A60G A86G | 1.36 |
| A62C A91G | 1.31 |
| A59G A140G | 1.25 |
| A62G U102C | 1.19 |
| A62U A66G | 1.58 |
| G58A A67G | 0.36 |
| G58A A117G | 1.66 |
| A59G A62G | 1.27 |
| A59G A62U | 1.32 |
| A60G C113U | 0.09 |

| Variant | self-cleavage |
| --- | --- |
| A62G A68U | 1.33 |
| A62G A63G | 1.21 |
| A62G G106U | 0.01 |
| A59G A96U | 0.71 |
| A59G A96G | 1.66 |
| A59G C101A | 0.13 |
| A59G A92G | 1.22 |
| C61A A91C | 2.41 |
| A62C A69G | 0.62 |
| A59G A116C | 0.07 |
| A60U A94G | 1.5 |
| A62C A94G | 1.61 |
| A60G A98G | 0.55 |
| A59G A117U | 0.95 |
| A59G A78G | 0.26 |
| A60U A82G | 0.66 |
| A60U A82U | 0.45 |
| A60G A117G | 1.55 |
| A60G A117C | 0.3 |
| A60C U72A | 0.21 |
| C61U U120A | 2.02 |
| A59G U97C | 0.82 |
| C61U A91G | 0.87 |
